Data on 1 molecule can be found in publication doi:10.1101/2020.05.14.095372.

By stoichiometry N is commonly meant a count of units in the complex or per binding partner.

The experiment deals with Mature human mitochondrial heat shock protein family D member 1 (HSPD1) (human), P10809. Description: cryo-EM structure. Conditions: remark: other sources report otherwise.

B1: Mature human mitochondrial heat shock protein family D member 1 (HSPD1), P10809 27-573 (natural protein)
chain: AKDVKFGADARALMLQGVDLLADAVAVTMGPKGRTVIIEQSWGSPKVTKDGVTVAKSIDLKDKYKNIGAKLVQDVANNTNEEAGDGTTTATVLARSIAKEGFEKISKGANPVEIRRGVMLAVDAVIAELKKQSKPVTTPEEIAQVATISANGDKEIGNIISDAMKKVGRKGVITVKDGKTLNDELEIIEGMKFDRGYISPYFINTSKGQKCEFQDAYVLLSEKKISSIQSIVPALEIANAHRKPLVIIAEDVDGEALSTLVLNRLKVGLQVVAVKAPGFGDNRKNQLKDMAIATGGAVFGEEGLTLNLEDVQPHDLGKVGEVIVTKDDAMLLKGKGDKAQIEKRIQEIIEQLDVTTSEYEKEKLNERLAKLSDGVAVLKVGGTSDVEVNEKKDRVTDALNATRAAVEEGIVLGGGCALLRCIPALDSLTPANEDQKIGIEIIKRTLKIPAMTIAKNAGVEGSLIVEKIMQSSSEVGYDAMAGDFVNMVEKGIIDPTKVVRTALLDAAGVASLLTTAEVVVTEIPKEEKDPGMGAMGGMGGGMGGGMF
In the case of B1, the stoichiometry N was determined as 7.
